Experimental data from paper PMC9790621.

Legend:
purified protein [1] = substrate: NC(=O)C1=CN([C@@H]2O[C@H](COP(=O)(O)OP(=O)(O)OC[C@H]3O[C@@H](n4cnc5c(N)ncnc54)[C@H](OP(=O)(O)O)[C@@H]3O)[C@@H](O)[C@H]2O)C=CC1; test: purified protein; conditions: pH 7.8; 25.0 °C
purified protein [2] = substrate: Nc1nc2c(ncn2[C@@H]2O[C@H](COP(=O)(O)O)[C@@H](O)[C@H]2O)c(=O)[nH]1; test: purified protein; conditions: pH 7.8; 25.0 °C

B1: Mtb GMPR (Mtb GuaB1) (Mycobacterium tuberculosis H37Rv) (protein)
chain: MRFLDGHPPGYDLTYNDVFIVPNRSEVASRFDVDLSTADGSGTTIPVVVANMTAVAGRRMAETVARRGGIVILPQDLPIPAVKQTVAFVKSRDLVLDTPVTLAPDDSVSDAMALIHKRAHGVAVVILEGRPIGLVRESSCLGVDRFTRVRDIAVTDYVTAPAGTEPRKIFDLLEHAPVDVAVLTDADGTLAGVLSRTGAIRAGIYTPATDSAGRLRIGAAVGINGDVGAKARALAEAGVDVLVIDTAHGHQVKTLDAIKAVSALDLGLPLAAGNVVSAEGTRDLLKAGANVVKVGVGPGAMCTTRMMTGVGRPQFSAVLECASAARQLGGHIWADGGIRHPRDVALALAAGASNVMIGSWFAGTYESPGDLMRDRDDQPYKESYGMASKRAVVARTGADNPFDRARKALFEEGISTSRMGLDPDRGGVEDLIDHITSGVRSTCTYVGASNLAELHERAVVGVQSGAGFAEGHPLPAGW
- K0.5 (purified protein [1]): 63 ± 7 µM
- K0.5 (purified protein [2]): 10.5 ± 1.17 µM
